Measurements reported in paper PMC5774872.

B1: unnamed (parent)
chain 1: MSAAILLAPGDVIKRSSEELKQRQIQINLVDWMESEGGKEDKTEPKEESKAEGSKDGEGTQSESGQKEEGGKETKDADVDRRIHTAVGSGSGTKGSGERANENANRGDGKVGGGGGDADAGVGATGTNGGRWVVLTEEIARAIESKYGTKIDVYRDEVPAQIIEVERSLQKELGISREGVAEQTERLRDLRRKEKNGTHAKAVERGGRKQRKKAHGDAQREGVEEEKTSEEPARIGITIEGVMSQKKLLSMIGGVERKMAPIGARESAVMLVSNSIKDVVRATAYFTAPTGDPHWKEVAREASKKKNILAYTSTGGDVKTEFLHLIDHL
chain 2: MAAQNEQRPERIKTTPYLEGDVLSSDSGPLLSVFALQEIMQKVRQVQADYMTATREVDFTVPDVQQILDDIKALAAAQVYKIVKVPSTSFRHIVTQSRDRVLRVDTYYEEMSQVGDVITEDEPEKFYSTIIKKVRFIRGKGSFILHDIPARDHRGMEVAEPEVLGVEFKNVLPVLTAEHRAMIQNALDGSIIENGNVATRDVDVFIGACSEPFYRIYNRFQGYIEAVQLQELRNSIGWLERLGQRKRITYSQEVLTDFRRQDMIWVLALQLPVNPQVVWDVPRSSIANLIMNIATCLPTGEYIAPNPRISSITLTQRITTTGPFAILTGSTPTAQQLNDVRKIYLALMFPGQIILDLKIDPGERMDPAVRMVAGVVGHLLFTAGGRFTNLTQNMARQLDIALNDYLLYMYNTRVQVNYGPTGEPLDFQIGRNQYDCNVFRADFATGTGYNGWATIDVEYRDPAPYVHAQRYIRYCGIDSRELINPTTYGIGMTYHCYNEMLRMLVAAGKDSEAAYFRSMLPFHMVRFARINQIINEDLHSVFSLPDDMFNALLPDLIAGAHQNADPVVLDVSWISLWFAFNRSFEPTHRNEMLEIAPLIESVYASELSVMKVDMRHLSLMQRRFPDVLIQARPSHFWKAVLNDSPEAVKAVMNLSHSHNFINIRDMMRWVLLPSLQPSLKLVLEEEAWAAANDFEDLMLTDQVYMHRDMLPEPRLDDIERFRQEGFYYTNMLEAPPEIDRVVQYTYEIARLQANMGQFRAALRRIMDDDDWIGFGGVLRTVRVKFFDARPPDDILQGLPFSYDTNEKGGLSYATIKYATETTIFYLIYNVEFSNTPDSLVLINPTYTMTKVFINKRIVERVRVGQILAVLNRRFVAYKGKMRIMDITQSLKMGTKLAAPTV
B2: unnamed (parent)
chain 1: B1 chain 2
chain 2: B1 chain 1

Variants of: B1
Experiment: coimmunoprecipitation (IP anti-HA MAb), immunoblot gray-value analysis
Conditions: with partner chain of the complex shown, five experiments, means ± SDs, parent: 100, read off a plot

Variant	percent of parent
chain 1 A282G A284G	42 % of WT
chain 1 F286A	18 % of WT
chain 1 R281A	100 % of WT
chain 1 R281A F286A	1 % of WT
chain 1 Y285A	7 % of WT
chain 1 Y285A F286A	2 % of WT

Variants of: B2
Experiment: coimmunoprecipitation (IP anti-Flag MAb), immunoblot gray-value analysis
Conditions: with partner chain of the complex shown, five experiments, means ± SDs, parent: 100, read off a plot

Variant	percent of parent
chain 2 Y285A	1 % of WT
chain 2 A282G A284G	45 % of WT
chain 2 F286A	57 % of WT
chain 2 R281A	130 % of WT
chain 2 R281A Y285A	4 % of WT
chain 2 R281A Y285A F286A	2 % of WT
chain 2 R281A F286A	19 % of WT
chain 2 Y285A F286A	2 % of WT
